Reference: PMC2698047
Like-named read-outs stand apart in the source and are kept apart here.

Experiments:
Assay in all cases: competition
[1] = biological target: T1, TP0262 (TpCRP, CRP homolog) (Treponema pallidum subsp. pallidum, UniProt O83286 1-224)
T1 sequence: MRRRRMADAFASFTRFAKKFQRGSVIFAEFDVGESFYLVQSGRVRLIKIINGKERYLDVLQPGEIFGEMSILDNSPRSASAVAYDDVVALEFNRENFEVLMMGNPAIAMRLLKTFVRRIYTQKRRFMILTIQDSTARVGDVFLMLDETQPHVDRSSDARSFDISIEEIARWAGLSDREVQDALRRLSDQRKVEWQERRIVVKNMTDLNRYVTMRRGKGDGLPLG

[2] = biological target: T1, TP0262 (TpCRP, CRP homolog); remark: listed apart in the source
E. coli CRP = E. coli CRP (Escherichia coli K12 MG1655, UniProt P0ACJ8 1-210)
Sequence of E. coli CRP (P0ACJ8 whole entry): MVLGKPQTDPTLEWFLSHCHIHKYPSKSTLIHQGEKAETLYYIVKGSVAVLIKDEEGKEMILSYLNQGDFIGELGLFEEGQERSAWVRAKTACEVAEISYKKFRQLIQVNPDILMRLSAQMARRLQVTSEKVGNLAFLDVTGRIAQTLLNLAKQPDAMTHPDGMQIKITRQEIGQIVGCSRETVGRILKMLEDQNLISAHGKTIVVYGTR

[3] = biological target: T1, TP0262 (TpCRP, CRP homolog); remark: listed apart in the source

B1: tprJ competitor oligo (dsDNA)
DNA 1: GTTGTCAGTGCACGAGGAGGAG
DNA 2: CTCCTCCTCGTGCACTGACAAC
binding result [1]: binds

B2: tprE competitor oligo (dsDNA)
DNA 1: TGCGTGTGTGTGTGGGCTCGTGCTG
DNA 2: CAGCACGAGCCCACACACACACGCA
binding result [2]: binds

B3: lac competitor oligo (E. coli CRP site) (dsDNA)
DNA 1: AAATGTGATCTAGATCACATTT
DNA 2: AAATGTGATCTAGATCACATTT
binding result (E. coli CRP): binds

B4: tprG competitor oligo (dsDNA)
DNA 1: GTCAGTGCTAGCAGTCACATAC
DNA 2: GTATGTGACTGCTAGCACTGAC
binding result [3]: binds
